Source: PMC8956599

Molecular target: T1, translation initiation factor IF3 (Escherichia coli) (UniProt P0A707)
T1 sequence: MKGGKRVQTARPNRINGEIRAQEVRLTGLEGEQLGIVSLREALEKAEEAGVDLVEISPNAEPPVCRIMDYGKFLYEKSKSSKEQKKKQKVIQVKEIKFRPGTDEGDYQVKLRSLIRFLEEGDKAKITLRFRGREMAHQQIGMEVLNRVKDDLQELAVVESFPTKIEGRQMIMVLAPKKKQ
Assay: fluorescence anisotropy
Settings: Binding buffer and temperature not given in material; EMSA gels in Tris/acetate or Tris/borate; anisotropy with 200 nM RNA and DFHBI-1T; protein storage buffer …

Sequence “GGGUGGUAACUAGCCAAGCAGCUAGUUACCAAAUCGGGAGAAUCCCGGGUCCUCUCUUUAGGGGGAGGUCCCUGGGCCGAAGCCCGCCCACCUUUCGGUGGAGCCGGACCGCUUUCGCACCCGUGCUCUUUCGAGCACACCCACCCCGUUUACGGGGGUCCCUCGGUCAGCUACCGAGGAGUUGCCAUGUGUAUGUGGGAGACGGUCGGGUCCAGAUAUUCGUAUCUGUCGAGUAGAGUGUGGGCUCCCACAUACUCUGAUGAUCCUUCGGGAUCAUUCAUGGCAAAAACCUCCUAGGAAUGGAAUUCCGGCUACCUACAGCGAUAGCCAUGGUAGCGUCUCGCUAAAGACAUUAAAAAUGGCAUUAGCUCGACAGGAAGUUGAGCAGGACCCCGAAAGGGGUCCCACCC [[F30-Bro(+)]UTR(-)]” has a Kd of 3.5 µM.
